Assay results from publication PMC8990738.

Target: depolymerase Dpo71 (Acinetobacter baumannii phage vB_AbaM-IME-AB2)
Assay: SEC; Superose 6 Increase column on AKTA FPLC, equilibrated with PBS; gel filtration markers of 150 and 200 kDa; purified Dpo71 alone

- stoichiometry N: 3
Substance: depolymerase Dpo71 (enzyme)
